Where no end group is shown, it is not given here.
What was measured:
CD28 [1] = biological target: T1, CD28 (Homo sapiens, UniProt P10747); test: Flow binding to Jurkat/IL2 reporter cells (CD28); set-up: host or cells: Jurkat cells expressing an IL-2-luciferase reporter; conditions: for CD28 Fold change to WT CD80: MFI at 33.3 nM relative to CD80 WT IgV-Fc
Experimental: (§1) Binding of selected immunomodulatory fusion proteins to cognate binding partners was assessed. […] Cells were sorted in a Bio-Rad S3 Cell Sorter (Bio-Rad Corp., USA) to >98% purity. Jurkat/IL2 reporter cells, which endogenously express CD28, were used to detect binding to CD28.
(§2) For staining and analysis by flow cytometry, 100,000 cells of appropriate transfected cells were plated in 96-well round bottom plates. Cells were spun down and resuspended in staining buffer (phosphate buffered saline (PBS), 1% bovine serum albumin (BSA), and 0.1% sodium azide) for 20 minutes to block non-specific binding. […] Primary staining was performed on ice for 45 minutes, before washing cells in staining buffer twice. Phycoerythrin (PE)-conjugated anti-human Fc (Jackson ImmunoResearch, USA) was diluted 1:150, added to cells and incubated another 30 minutes on ice. Cells were then washed twice with 150 μL/well stain buffer, fixed in 2% formaldehyde/PBS, and analyzed on Intellicyt flow cytometer (Intellicyt Corp., USA). PE Mean Fluorescence Intensity (MFI) was calculated for each cell type with FlowJo Version 10 software (FlowJo LLC, USA).
(§3) Binding assays were carried out to assess the specificity and affinity of multivalent proteins to cell-expressed CTLA-4, CD28, and PD-L1 counter structures.
(§4) The EC50 for binding also was determined.

CD28 [2] = biological target: T1, CD28; test: Jurkat/IL2 + CHO/OKT3 +/- PD-L1 reporter assay: PD-L1-dependent CD28 costimulation; assay type: cell-based; set-up: host or cells: Jurkat cells expressing an IL-2-luciferase reporter
Experimental: Jurkat cells were then plated at 50 μL/well for a total of 100,000 cells per well.
To each well, 25 μL of test protein was added to the Jurkat cells. […] The Jurkat cells with test or control proteins were incubated for 15 minutes at room temperature. CHO-derived artificial antigen presenting cells (aAPC) displaying transduced cell surface anti-CD3 single chain Fv (OKT3) (i.e., no PD-L1), or OKT3 and PD-L1 (i.e., +PD-L1), were brought to 0.8×10^6 cells/mL, and 25 μL of cells were added to each well, bringing the final volume of each well to 100 μL. […] Jurkat cells and CHO cells were incubated for 5 hours at 37 degrees Celsius in a humidified 5% CO2 incubation chamber. Plates were then removed from the incubator and acclimated to room temperature for 15 minutes. 100 μL of a cell lysis and luciferase substrate solution (BioGlo luciferase reagent, Promega) were added to each well and the plates were incubated on an orbital shaker for 10 minutes. Luminescence was measured with a 1 second per well integration time using a BioTek Cytation luminometer, and a relative luminescence value (RLU) was determined for each test sample.

huCTLA4 = huCTLA4 (Homo sapiens, UniProt P16410); test: Flow binding to CHO cells stably expressing CTLA4; set-up: huCTLA4 and huPD-L1, full-length mammalian surface expression constructs were generated; expressed in transfected cells; host or cells: CHO cells, lentiviral transduction, sorted to >98% purity; conditions: for CTLA4 MFI at 33.3 nM: CHO cells stably expressing CTLA4
Experimental: as §1, §2, §3, §4

huPD-L1 = huPD-L1 (Homo sapiens, UniProt Q9NZQ7); test: Flow binding to CHO cells stably expressing PD-L1; set-up: huCTLA4 and huPD-L1, full-length mammalian surface expression constructs were generated; expressed in transfected cells; host or cells: CHO cells, lentiviral transduction, sorted to >98% purity; conditions: for PD-L1 MFI at 33.3 nM: CHO cells stably expressing PD-L1; for PD-L1 Fold change to WT CD80: MFI at 33.3 nM relative to CD80 WT IgV-Fc
Experimental: as §1, §2, §3, §4

[3] = Table E20, Jurkats (CD28), 33.3 nM
[4] = Table E22, Jurkat/IL2 + CHO/OKT3/PD-L1, 5.0 nM
[5] = Table E22, Jurkat/IL2 + CHO/OKT3/PD-L1, CD80 Conc 5.0 nM
[6] = Table E20, MFI at 33.3 nM relative to CD80 WT IgV-Fc
[7] = Table E20, ratio of MFI at 33.3 nM
[8] = Table E23, CD80 IgV-Fc (inert) at 33.3 nM, Jurkat (CD28)
[9] = Table E24, Jurkat/IL2 + CHO/OKT3/PD-L1, 5.0 nM
[10] = Table E23, CD80 IgV-Fc (inert) at 33.3 nM
[11] = Table E23, MFI at 33.3 nM relative to CD80 WT IgV-Fc
[12] = Table E23, ratio of MFI at 33.3 nM
[13] = Table E14, 33.3 nM, listed as CD80 WT IgV-Fc = 1.0
[14] = Table E15, CHO/OKT3/PD-L1, 5.0 nM

huPD-L1, sequence (Q9NZQ7 19-290): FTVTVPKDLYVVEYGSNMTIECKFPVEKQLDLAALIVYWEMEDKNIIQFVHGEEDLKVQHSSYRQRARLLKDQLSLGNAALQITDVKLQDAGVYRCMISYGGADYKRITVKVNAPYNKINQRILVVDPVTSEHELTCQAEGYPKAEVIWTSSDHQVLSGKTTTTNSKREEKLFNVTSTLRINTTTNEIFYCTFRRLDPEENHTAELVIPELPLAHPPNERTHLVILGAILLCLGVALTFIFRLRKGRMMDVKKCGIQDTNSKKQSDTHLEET
huCTLA4, sequence (P16410 36-223): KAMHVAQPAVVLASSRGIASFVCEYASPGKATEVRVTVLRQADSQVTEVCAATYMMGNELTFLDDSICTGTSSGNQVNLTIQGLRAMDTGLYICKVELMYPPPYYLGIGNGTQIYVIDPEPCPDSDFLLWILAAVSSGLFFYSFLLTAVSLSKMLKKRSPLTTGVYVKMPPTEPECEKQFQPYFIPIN

Row | Substance | CD28 MFI at 33.3 nM (CD28 [1]; [3]) | CD28 Fold change to WT CD80 (CD28 [1]; Table E20) [fold] | Fold Increase over WT CD80-IgV-Fe (CD28 [2]; [4]) [fold] | Relative Luciferase Units (RLU), CD80 Conc 5.0 nM (CD28 [2]; [5]) [RLU] | CTLA4 MFI at 33.3 nM (huCTLA4; Table E20, 33.3 nM) | CTLA4 Fold change to WT CD80 (huCTLA4; [6]) [fold] | PD-L1 MFI at 33.3 nM (huPD-L1; Table E20, 33.3 nM) | PD-L1 Fold change to WT CD80 (huPD-L1; Table E20) [fold] | Ratio of PDL1:CD28 (huPD-L1; [7]) | further results
1 | H18Y/A26E/E35D/M47L/V68M/D90G | 2675 | 60.9 | 2.29 | 893 | 24855 | 18.3 | 25217 | 578.4 | 9.4 | 
2 | A26E/E35D/M47L/V68M/A71G/D90G | 2211 | 50.4 | 2.86 | 1117 | 21749 | 16.0 | 30232 | 693.4 | 13.7 | 
3 | A26E/E35D/V68M/A71G/D90G | 2102 | 47.9 | 2.34 | 912 | 23286 | 17.1 | 26510 | 608.0 | 12.6 | 
4 | H18A/A26N/E35D/M47L/V68M/A71G/D90G |  |  |  |  |  |  |  |  |  | CD28 MFI at 33.3 nM (CD28 [1]; [8]): 4913; CD28 Fold change to WT CD80 (CD28 [1]; Table E23): 48.2; Fold Increase over WT CD80-IgV-Fe (CD28 [2]; [9]): 6.2; Relative Luciferase Units (RLU), CD80 Conc 5.0 nM (CD28 [2]; [9]): 1054 RLU; CTLA4 MFI at 33.3 nM (huCTLA4; [10]): 21360; CTLA4 Fold change to WT CD80 (huCTLA4; [11]): 15.4; PD-L1 MFI at 33.3 nM (huPD-L1; [10]): 36284; PD-L1 Fold change to WT CD80 (huPD-L1; Table E23): 219.9; Ratio of PDL1:CD28 (huPD-L1; [12]): 7.4
5 | H18Y/A26E/E35D/V68M/A71G | 394 | 9.0 | 2.46 | 961 | 19394 | 14.3 | 27476 | 630.2 | 69.7 | 
6 | H18Y/A26E/E35D/M47L/A71G | 379 | 8.6 | 2.42 | 944 | 19353 | 14.2 | 16887 | 387.3 | 44.6 | 
7 | H18Y/A26E/V68M/A71G/D90G | 2683 | 61.1 | 2.50 | 974 | 18305 | 13.5 | 27872 | 639.3 | 10.4 | 
8 | H18Y/E35D/M47L/V68M/A71G | 928 | 21.1 | 2.19 | 853 | 23667 | 17.4 | 30377 | 696.7 | 32.7 | 
9 | H18Y/A26Q/E35D/M47T/V68M/A71G/D90G |  |  |  |  |  |  |  |  |  | CD28 MFI at 33.3 nM (CD28 [1]; [8]): 6733; CD28 Fold change to WT CD80 (CD28 [1]; Table E23): 66.0; Fold Increase over WT CD80-IgV-Fe (CD28 [2]; [9]): 5.8; Relative Luciferase Units (RLU), CD80 Conc 5.0 nM (CD28 [2]; [9]): 994 RLU; CTLA4 MFI at 33.3 nM (huCTLA4; [10]): 16652; CTLA4 Fold change to WT CD80 (huCTLA4; [11]): 12.0; PD-L1 MFI at 33.3 nM (huPD-L1; [10]): 24450; PD-L1 Fold change to WT CD80 (huPD-L1; Table E23): 148.2; Ratio of PDL1:CD28 (huPD-L1; [12]): 3.6
10 | H18Y/A26E/M47L/V68M/A71G/D90G | 2556 | 58.2 | 2.19 | 853 | 121 | 0.1 | 31716 | 727.4 | 12.4 | 
11 | H18A/A26P/E35D/M47L/V68M/A71G/D90G |  |  |  |  |  |  |  |  |  | CD28 MFI at 33.3 nM (CD28 [1]; [8]): 4731; CD28 Fold change to WT CD80 (CD28 [1]; Table E23): 46.4; Fold Increase over WT CD80-IgV-Fe (CD28 [2]; [9]): 5.0; Relative Luciferase Units (RLU), CD80 Conc 5.0 nM (CD28 [2]; [9]): 857 RLU; CTLA4 MFI at 33.3 nM (huCTLA4; [10]): 23763; CTLA4 Fold change to WT CD80 (huCTLA4; [11]): 17.2; PD-L1 MFI at 33.3 nM (huPD-L1; [10]): 33436; PD-L1 Fold change to WT CD80 (huPD-L1; Table E23): 202.6; Ratio of PDL1:CD28 (huPD-L1; [12]): 7.1
12 | H18Y/A26E/M47L/V68M/D90G | 32 | 0.7 | 2.76 | 1075 | 28649 | 21.1 | 23594 | 541.1 | 737.3 | 
13 | deltaE10-A98: variant CD80 IgV-Fc, IgV SEQ ID NO:545 (VIHVTKEVKEVTLSVKAD; not fully specified) |  |  |  |  |  |  |  |  |  | CD28 Fold change to WT (CD28 [1]; [13]): 0.4; CD28 MFI at 33.3 nM (CD28 [1]; Table E14, Jurkats (CD28), 33.3 nM): 15; Fold Increase over WT CD80-IgV-Fe (CD28 [2]; [14]): 0.3; Relative Luciferase Units (RLU), CD80-Fe Cone 5.0 nM (CD28 [2]; [14]): 137 RLU; CTLA4 Fold change to WT CD80 (huCTLA4; [13]): 0.1; CTLA4 MFI at 33.3 nM (huCTLA4; Table E14, 33.3 nM): 125; PD-L1 Fold change to WT (huPD-L1; [13]): 0.5; PD-L1 MFI at 33.3 nM (huPD-L1; Table E14, 33.3 nM): 45; Ratio of PDL1:CD28 (huPD-L1; Table E14, MFI at 33.3 nM): 3
14 | H18Y/A26E/E35D/A71G/D90G | 1075 | 24.5 | 2.45 | 956 | −100 | −0.1 | 14822 | 340.0 | 13.8 | 

Reference: US20220177587A1, “METHODS AND USES OF VARIANT CD80 FUSION PROTEINS AND RELATED CONSTRUCTS” (Alpine Immune Sciences, Inc., priority 2018, published 2022)
